The values that follow come from patent US20140295495A1 (Biogen, published 2014).

In this test the target is T1, human antigen that binds to mAb1 (human, UniProt Q96FE5 42-538, limits assumed).
T1 sequence (looked up): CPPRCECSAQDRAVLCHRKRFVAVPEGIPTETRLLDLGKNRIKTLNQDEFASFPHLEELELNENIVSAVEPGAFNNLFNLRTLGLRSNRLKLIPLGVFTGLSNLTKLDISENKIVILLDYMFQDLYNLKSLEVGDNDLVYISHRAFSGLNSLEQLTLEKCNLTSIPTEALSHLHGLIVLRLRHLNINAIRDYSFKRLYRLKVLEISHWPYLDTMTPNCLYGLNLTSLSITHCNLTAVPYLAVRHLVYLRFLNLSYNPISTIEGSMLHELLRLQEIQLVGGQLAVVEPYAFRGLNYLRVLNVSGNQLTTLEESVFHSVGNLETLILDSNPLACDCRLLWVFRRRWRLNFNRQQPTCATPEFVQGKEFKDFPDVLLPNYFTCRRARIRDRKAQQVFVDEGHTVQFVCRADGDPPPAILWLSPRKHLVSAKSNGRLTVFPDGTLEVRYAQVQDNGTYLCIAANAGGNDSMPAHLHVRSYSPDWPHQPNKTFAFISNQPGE
Kind of test: direct binding ELISA, antigen coated on the plate, detection with AP-anti-human Fab.

Procedure: Plates were washed 3 times with 350 μL of PBS using a plate washer and blocked with 1% BSA, 0.1% ovalbumin, and 0.1% non-fat dry milk in Hank's balanced salt buffer containing 25 mM HEPES (pH 7.0) for 1 hour at room temperature. Plates were then washed again, and incubated for 1 h with a 3-fold dilution series set up for each test compound (50 μL/well, 8 dilutions) starting at 10 μg/mL and all in 0.1% BSA, 0.1% ovalbumin, and 0.1% non-fat dry milk in Hank's balanced salt buffer containing 25 mM HEPES (pH 7.0), and again washed. […] Plates were read at 405 nm on a Molecular Devices plate reader. EC₅₀ values for binding were calculated from the titration curve using prism software.

B1: mAb1-C (mAb1, anti-LINGO-1 antibody Li81, aglycosyl human IgG1; preparation with 39% trisulfide at the LC5-HC5 linkage) (antibody, V domains shown)
VH: EVQLLESGGGLVQPGGSLRLSCAASGFTFSAYEMKWVRQAPGKGLEWVSVIGPSGGFTFYADSVKGRFTISRDNSKNTLYLQMNSLRAEDTAVYYCATEGDNDAFDIWGQGTTVTVSS
VL: DIQMTQSPATLSLSPGERATLSCRASQSVSSYLAWYQQKPGQAPRLLIYDASNRATGIPARFSGSGSGTDFTLTISSLEPEDFAVYYCQQRSNWPMYTFGQGTKLEIK
modifications: 39% trisulfide at the LC5-HC5 linkage (heavy-light interchain Cys linkage)
A word on the EC50: it is the concentration that produces a half-maximal response. B1: the half-maximal effective concentration (EC50) turned out to be 0.02 nM.

B2: mAb1-A (mAb1, anti-LINGO-1 antibody Li81, aglycosyl human IgG1; preparation with about 0.5% trisulfide at the LC5-HC5 linkage) (antibody, V domains shown)
VH: B1 VH
VL: B1 VL
modifications: about 0.5% trisulfide at the LC5-HC5 linkage (heavy-light interchain Cys linkage)
notes: also called mAb-A
In the case of B2, the EC50 came to 0.02 nM.
